Results reported in patent US20240376218A1.
Blank lines part the entries; values can stand above or below the substance they belong to.

Columns and labels:
[1] = biological target: FcRn immobilized on FcRn column (Roche, Order No. 8128057001); assay: FcRn affinity chromatography, linear pH gradient
[2] = biological target: human CCR8 tagged with ProLink (human); assay: cell-based or functional assay
[3] = biological target: cynomolgus CCR8 (cynomolgus); assay: FACS, CHO cells expressing cynomolgus CCR8, signal at saturation
human CCR8 (human) = human CCR8 (human) (UniProt P51685); assay: cell-based or functional assay
[4] = biological target: human CCR4 (P51679_CCR4_HUMAN) (human) (UniProt P51679); assay: cell-based or functional assay
human CCR4 (human) = human CCR4 (human) (UniProt P51679); assay: cell-based or functional assay
murine CCR8 (mouse) = murine CCR8 (mouse) (UniProt P56484); assay: cell-based or functional assay
Sequence of murine CCR8 (mouse) (P56484 whole entry): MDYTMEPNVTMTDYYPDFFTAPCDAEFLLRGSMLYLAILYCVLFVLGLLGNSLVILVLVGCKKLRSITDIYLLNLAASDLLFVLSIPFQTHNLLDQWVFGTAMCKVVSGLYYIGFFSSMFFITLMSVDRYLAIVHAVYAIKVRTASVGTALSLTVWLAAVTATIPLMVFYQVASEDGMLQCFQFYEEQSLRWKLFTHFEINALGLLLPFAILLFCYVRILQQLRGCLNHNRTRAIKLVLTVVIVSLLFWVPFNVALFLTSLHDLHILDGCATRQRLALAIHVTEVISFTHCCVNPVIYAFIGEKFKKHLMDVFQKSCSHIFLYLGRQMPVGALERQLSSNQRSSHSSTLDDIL

Sequence of human CCR4 (P51679_CCR4_HUMAN) (human) (P51679 whole entry): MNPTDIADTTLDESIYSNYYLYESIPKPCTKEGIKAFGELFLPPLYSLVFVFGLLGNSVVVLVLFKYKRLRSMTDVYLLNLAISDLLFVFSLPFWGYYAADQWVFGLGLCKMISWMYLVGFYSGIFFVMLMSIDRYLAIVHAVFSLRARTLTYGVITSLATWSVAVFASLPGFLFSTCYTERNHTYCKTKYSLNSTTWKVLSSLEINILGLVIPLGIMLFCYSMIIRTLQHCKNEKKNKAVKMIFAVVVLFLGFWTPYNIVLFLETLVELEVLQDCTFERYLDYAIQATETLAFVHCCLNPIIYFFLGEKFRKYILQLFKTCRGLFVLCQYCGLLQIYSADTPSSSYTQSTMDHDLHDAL
Sequence of human CCR4 (human) (P51679 whole entry): as above
Sequence of cynomolgus CCR8 (cynomolgus) (O97665 other isoform, or with tags, fused parts or gaps): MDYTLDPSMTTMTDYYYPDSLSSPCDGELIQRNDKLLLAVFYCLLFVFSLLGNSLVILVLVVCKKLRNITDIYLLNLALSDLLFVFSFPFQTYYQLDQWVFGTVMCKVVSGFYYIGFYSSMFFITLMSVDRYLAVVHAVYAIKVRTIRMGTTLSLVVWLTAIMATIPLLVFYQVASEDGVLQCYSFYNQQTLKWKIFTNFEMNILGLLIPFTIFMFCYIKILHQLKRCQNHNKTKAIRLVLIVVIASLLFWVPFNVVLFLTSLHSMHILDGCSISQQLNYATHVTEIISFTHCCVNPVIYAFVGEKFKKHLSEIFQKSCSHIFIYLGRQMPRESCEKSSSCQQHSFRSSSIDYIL
Sequence of Ustekinumab (antibody) (HC): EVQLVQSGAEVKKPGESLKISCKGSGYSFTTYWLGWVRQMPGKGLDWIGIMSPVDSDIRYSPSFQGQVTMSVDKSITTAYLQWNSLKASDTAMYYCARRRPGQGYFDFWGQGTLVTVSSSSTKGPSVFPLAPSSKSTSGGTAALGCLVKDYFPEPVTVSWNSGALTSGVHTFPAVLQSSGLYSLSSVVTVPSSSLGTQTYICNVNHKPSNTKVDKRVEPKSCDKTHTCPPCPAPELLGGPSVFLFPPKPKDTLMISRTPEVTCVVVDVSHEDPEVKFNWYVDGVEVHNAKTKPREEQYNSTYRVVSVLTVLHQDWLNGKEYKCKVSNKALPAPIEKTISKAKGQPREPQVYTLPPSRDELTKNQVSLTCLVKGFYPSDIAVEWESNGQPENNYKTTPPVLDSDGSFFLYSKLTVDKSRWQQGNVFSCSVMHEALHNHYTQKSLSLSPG
Sequence of Ustekinumab (antibody) (LC): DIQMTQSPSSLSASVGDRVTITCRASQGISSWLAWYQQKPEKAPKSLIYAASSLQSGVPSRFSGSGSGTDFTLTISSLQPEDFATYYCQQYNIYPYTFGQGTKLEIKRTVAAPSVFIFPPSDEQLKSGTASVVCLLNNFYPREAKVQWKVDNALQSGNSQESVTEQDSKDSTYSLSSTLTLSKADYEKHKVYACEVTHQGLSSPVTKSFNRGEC

pH at Elution [1]: 7.85 pH
Substance: Briakinumab (antibody)

EC80 of β-arrestin signaling (DiscoverX assay) [2]: 0.02 µg/mL
Substance: CCL1 (human) (from UniProt P22362 24-96) (ligand)

MFI [3]: < 1000
Substance: L263G8 (Biolegend) (antibody)

IC50 in nM for inhibition of CCL1 induced β-arrestin signaling (DiscoverX assay), CHO with hCCR8 [2]: 13.8 nM | Ca flux assay IC50 (nM), block of signaling induced by CCL1 at 60 ng/ml; CHO cells expressing human CCR8 (human CCR8 (human)): 1.26 nM | Ca flux assay Span ratio (from max to min), block of signaling induced by CCL1 at 60 ng/ml; CHO cells expressing human CCR8 (human CCR8 (human)): 921 | Internalization [fold isotype], HuT78 cells, BODIPY FL-labelled antibody (human CCR8 (human)): 22 fold isotype
Substance: L263G8 (antibody)

ADCC EC50, activated Tregs + NK92v, Donor 1213 [4]: 0.31 nM | ADCC EC50, activated Tregs + NK92v, Donor 1730 [4]: 1.09 nM | ADCC Max Response, activated Tregs + NK92v, Donor 1213 [4]: 58% | ADCC Max Response, activated Tregs + NK92v, Donor 1730 [4]: 65% | ADCC Max Response (%); activated human Tregs (Donor 1100) as target cells, NK92v effector cells (human CCR4 (human)): 96% | ADCC Max Response (%); activated human Tregs (Donor 1100), NK92v effector cells (human CCR4 (human)): 74% | ADCC Max Response (%); activated human Tregs (Donor 1261), NK92v effector cells (human CCR4 (human)): 71% | ADCC hTreg EC50 (pM); activated human Tregs (Donor 1100) as target cells, NK92v effector cells (human CCR4 (human)): 35.2 pM | ADCC hTreg EC50 (pM); activated human Tregs (Donor 1100), NK92v effector cells (human CCR4 (human)): 193 pM | ADCC hTreg EC50 (pM); activated human Tregs (Donor 1261), NK92v effector cells (human CCR4 (human)): 86.4 pM
Substance: Mogamulizumab (antibody)

Internalization [fold isotype], mBW5147.3 cells, BODIPY FL-labelled antibody (murine CCR8 (mouse)): 11 fold isotype
Substance: SA214G2 (antibody)

pH at Elution [1]: 7.22 pH
Substance: Ustekinumab (antibody)
